Results as given in patent US5456909A, “Glycoform fractions of recombinant soluble complement receptor 1 (sCR1) having extended half-lives in vivo” (T Cell Sciences, Inc., priority 1992, dated 1995).

Assays:
[1] = Pharmacokinetic studies 1, 4, 5, 7, 9: iv clearance of 125I-labelled TP10HD preparations in rats; type: in vivo, Sprague-Dawley rats; details: 1 mg/kg
Protocol: In Studies 1, 2, 4, 5, 7 and 9, Iodination was carried out by the chloramine-T procedure. Sodium phosphate buffer, 0.5M, pH 7.6, 50 μl, was added to 1 mCi of Na-^125 I (New England Nuclear, Boston, Mass.) as supplied. The sample of TP10HD, typically 100 μg in 100 μl (Study 5=69 μg; Study 7=34 μg; Study 9=91 μg), was added followed by 50 μl of a 15 mg/ml solution of freshly prepared chloramine-T. The reaction mixture was vigorously shaken for 60 seconds. Sodium metabisulfite (50 μl, 15 mg/ml) and sodium iodide (100 μl, 10 mg/ml) were successively pipetted into the reaction vial. The reaction mixture was passed onto a PD10 column (Pharmacia Fine Chemicals, Piscataway, N.J.), pre-equilibrated with phosphate buffered saline, pH 7.2-7.4, containing 0.1% bovine serum albumin (Sigma Chemical Company, St. Louis, Mo.). Ten 0.5 ml fractions were collected and 2 μl aliquots were counted directly and after combining with 100 μl of a 0.1% bovine serum albumin solution and 1 ml of 20% trichloroacetic acid. After incubation at 0° C. for 1 hour, the acid-precipitable protein associated radioactivity was collected by centrifugation for 10 minutes at 1000×g and quantitated by scintillation counting. Fractions containing >90% of the total radioactivity in the acid precipitate were pooled for further use.
Study 1: Radioiodinated TP10HD-CX was mixed with purified unlabeled TP10HD-CX to yield a dosing solution suitable for administering a 1 mg/kg total TP10HD dose containing 16-25×10^6 cpm of radiolabeled TP10HD-CX.
Study 4: Radioiodinated TP10HD-CC was mixed with purified unlabeled TP10HD-CC to yield a dosing solution suitable for administering a 1 mg/kg or a 3 mg/kg total TP10HD dose containing ~20×10^6 cpm.
Study 5: Radioiodinated TP10HD-CCW was mixed with purified unlabeled TP10HD-CCW to yield a dosing solution suitable for administering a 1 mg/kg total TP10HD dose containing ~20×10^6 cpm.
Study 7: Radiolabeled TP10HD-CCS was mixed with purified unlabeled TP10HD-CCS to yield a dosing solution suitable for administering a 1 mg/kg total TP10HD dose containing ~20×10^6 cpm.
Study 9: Radioiodinated TP10HD-CXD was mixed with purified unlabeled TP10HD-CXD to yield a dosing solution suitable for administering a 1 mg/kg total TP10HD dose containing ~20~10^6 cpm.
In Studies 1, 4, 5, 7 and 9, test material was injected intravenously (iv) into four Sprague-Dawley rats (2 male, 2 female). Blood samples were obtained from the retroorbital plexus at 1, 3, 5, 10, 20, 30, 45, and 60 minutes post injection, and the radioactivity determined. Additional post infusion blood samples were taken at 2, 3, and 4 hours postinjection (STUDY 4) and at 120 minutes (STUDY 5). The plasma fraction of the remaining blood sample was retained for further analysis.
Plasma samples were analyzed for residual test material by measuring:
(1) total residual radioactivity;
(2) percentage of radiolabeled material precipitated with TCA;
(3) residual acid precipitable radioactivity in the presence of SDS; and
(4) material immunologically identifiable in an enzyme immunoassay as TP10HD.
Radioisotope data was quantitated as total cpm/ml blood or plasma and as the percentage of a theoretical time zero value. Pharmacokinetic half-life was calculated from the radiometric data.
In Study 9, removal of N-linked oligosaccharide chains was performed by n-glycanase digestion, performed according to manufacturer's instructions (Genzyme Corporation, Boston, Mass.). Typically, 58 μg TP10HD-CX was incubated with 10.5 units of n-glycanase for 18 hours, 37° C., in 0.2M sodium phosphate, pH 8.6 buffer.
Precipitation with trichloroacetic acid was performed as follows: Plasma (20 μl) was precipitated by sequential addition of 450μl of 0.13M Tris HCl, 4% SDS, 10% glycerol, pH 6.8 buffer, followed by 30 μl of fetal bovine serum and 500μl of 20% trichloroacetic acid. […]

[2] = Pharmacokinetic study 2: iv TP10HD-CX in rabbits, residual functional activity by hemolysis inhibition; type: in vivo, Dutch rabbits; details: for Peak (t = O) conc / Serum half-life / Total Clearance / Volume of Distribution: iv, 1 mg/kg
Protocol: Study 2: Radioiodinated TP10HD-CX, ~5% w/w, was mixed with purified TP10HD-CX to yield a dosing solution containing 1 mg/ml TP10HD-CX in 0.1M Hepes, 0.15M NaCl, pH 7.4 buffer.
In Study 2, test material was injected iv into two groups of five male Dutch rabbits (approximately 1 kg) at a dose of 1 mg/kg. Blood samples, 2 ml, were taken from an ear artery immediately pre-dosing and at 5, 10, 20, 45, 60, 120, and 180 minutes, and mixed with heparin (final concentration 25 μg/ml). Radioactivity was determined in an aliquot by scintillation counting, and the plasma, obtained by centrifugation at 2000×g for 5 minutes, was stored at -40° C.
Plasma samples were analyzed for residual test material by an in vitro functional assay, inhibition of hemolysis of antibody coated sheep red blood cells (SRBC) by human complement. Pharmacokinetic half-life was calculated from the titer of the residual functional activity.
Rabbit plasma samples were heated at 56° C. for 1 hour in the presence of methylamine (12.5 mM) in order to amidate thioester groups and to inactivate endogenous complement components C3 and C4. […] Test samples were then diluted 1:50 with 0.1 Hepes, 0.15M NaCl, pH 7.4 buffer and assayed.
(§1) SRBC presensitized with rabbit anti-SRBC antibody (Diamedix, Miami, Fla.) were mixed in a V-bottom microtiter wells (Costar, Cambridge, Mass.) with an appropriate dilution of the test plasma and an aliquot of diluted human serum as a complement source. After incubation, 37° C., 1 hour, the unlysed red cells were pelleted by centrifugation, the supernatant transferred to corresponding flat bottom microwells (Costar, Cambridge, Mass.), and absorbance at 415 nm measured. Inhibition of complement-mediated lysis of the antibody coated SRBC was measured as a reduction in the absorbance in the presence of test sample. Standard curves with known quantities of TP10HD can be used to calibrate the assay so that results can be expressed as mg/ml TP10HD remaining in the plasma versus time.

[3] = test system: complement-mediated lysis of antibody coated SRBC; assay: Inhibition of complement-mediated hemolysis of antibody-sensitized SRBC in vitro; type: cell-based, human
Protocol: as §1, with “sample.” for “sample. Standard curves with known quantities of TP10HD can be used to calibrate the assay so that results can be expressed as mg/ml TP10HD remaining in the plasma versus time.”
A range of dilutions of TP10HD or TP10HD glycoform spanning 7.8 to 1000 ng/ml was examined for each sample.

[4] = Isoelectric point by chromatofocusing (Mono P, pH 7.1 to 4.0); type: physicochemical; details: chromatofocusing
Protocol: Chromatofocusing is a method of separating isoforms of proteins according to their isoelectric point, pI, using an ion exchange column and a pH gradient created with amphoteric buffers of different pH. In this study, analysis of the TP10HD preparations was performed using a pH gradient of 7.1 to 4.0. The chromatographic resin was Mono P, Hr5/5 (Pharmacia Fine Chemicals, Piscataway, N.J.); the starting buffer was 0.025M Bis/Tris titrated to pH 7.1 with saturated iminodiacetic acid; the eluant was polybuffer 7-4 (Pharmacia Fine Chemicals, Piscataway, N.J.) diluted 1:10 (v/v) with water and adjusted to pH 4.0 with HCl; cleaning buffer was 2M NaCl in water. The experimental conditions were chosen to yield a linear pH gradient of 7.1 to 4.0 units.

[5] = in vivo
Protocol: Plasma pharmacokinetic half-lives and/or clearance rates of different glycoform preparations were determined.

iC3 = details: produced in presence of tunicamycin; cited from earlier work
[6] = test system: reversed passive Arthus reaction; details: in vivo; cited from earlier work
[7] = test system: post-ischemic myocardial inflammation and necrosis; details: in vivo; cited from earlier work
[8] = in vivo; cited from earlier work

TP10HD-CX: TP10HD produced by cells cultured in a hollow fiber bioreactor and purified by HPLC cation exchange chromatography
α phase half-life [1]: 4.3 min
β phase half-life [1]: 167 min
α phase half-life ([2]; Study 2, iv, 1 mg/kg (Table 3 summary)): 9 to 11 min
Peak (t = O) conc ([2]; Group 1): 16.5 ± 2.4 µg/mL
Serum half-life ([2]; Group 1): 9.1 ± 1.4 min
Total Clearance ([2]; Group 1): 5.8 ± 1.2 mL/min/kg
Volume of Distribution ([2]; Group 1): 0.067 ± 0.009 L/kg
Peak (t = O) conc ([2]; Group 2): 23.7 ± 1.7 µg/mL
Serum half-life ([2]; Group 2): 11.1 ± 1.2 min
Total Clearance ([2]; Group 2): 2.9 ± 0.1 mL/min/kg
Volume of Distribution ([2]; Group 2): 0.0446 ± 0.0037 L/kg
IH50 (concentration giving 50% inhibition of hemolysis) ([3]; SRBC, human serum as complement source): 20 ± 7 ng/mL
average pI, in words [4]: higher average pI than TP10HD-CC
pI of minor isoforms ([4]; smaller quantities / minor component): ≤ 5.0

TP10HD-CXD: TP10HD-CX enzymatically deglycosylated with n-glycanase
α phase half-life [1]: < 1 min
β phase half-life [1]: 6.1 min
IH50 (concentration giving 50% inhibition of hemolysis) ([3]; comparison before and after deglycosylation): 40 ng/mL
plasma half-life / clearance, in words [5]: cleared rapidly

non-glycosylated form of CR1: non-glycosylated form of CR1 produced in the presence of tunicamycin
binding to iC3 (iC3): reduced binding to iC3

sCR1/pBSCR1c: soluble CR1 construct containing LHR-A, LHR-B, LHR-C, LHR-D, SCR29, SCR30 regions up to and including the first alanine residue of the transmembrane region
activity in reversed passive Arthus reaction [6]: demonstrated in vivo activity
post-ischemic myocardial inflammation and necrosis [7]: suppressed post-ischemic myocardial inflammation and necrosis
survival rates following transplantation [8]: extended survival rates following transplantation
